This is an account of results in US20190307847A1.

This assay deals with mouse FGFR4/β-klotho complex co-expressed in rat L6 myoblast cells (mouse) (UniProt Q03142). Description: cell-based or functional assay.
Sequence of mouse FGFR4/β-klotho complex co-expressed in rat L6 myoblast cells (mouse) (Q03142 17-799, chain 1 of 2): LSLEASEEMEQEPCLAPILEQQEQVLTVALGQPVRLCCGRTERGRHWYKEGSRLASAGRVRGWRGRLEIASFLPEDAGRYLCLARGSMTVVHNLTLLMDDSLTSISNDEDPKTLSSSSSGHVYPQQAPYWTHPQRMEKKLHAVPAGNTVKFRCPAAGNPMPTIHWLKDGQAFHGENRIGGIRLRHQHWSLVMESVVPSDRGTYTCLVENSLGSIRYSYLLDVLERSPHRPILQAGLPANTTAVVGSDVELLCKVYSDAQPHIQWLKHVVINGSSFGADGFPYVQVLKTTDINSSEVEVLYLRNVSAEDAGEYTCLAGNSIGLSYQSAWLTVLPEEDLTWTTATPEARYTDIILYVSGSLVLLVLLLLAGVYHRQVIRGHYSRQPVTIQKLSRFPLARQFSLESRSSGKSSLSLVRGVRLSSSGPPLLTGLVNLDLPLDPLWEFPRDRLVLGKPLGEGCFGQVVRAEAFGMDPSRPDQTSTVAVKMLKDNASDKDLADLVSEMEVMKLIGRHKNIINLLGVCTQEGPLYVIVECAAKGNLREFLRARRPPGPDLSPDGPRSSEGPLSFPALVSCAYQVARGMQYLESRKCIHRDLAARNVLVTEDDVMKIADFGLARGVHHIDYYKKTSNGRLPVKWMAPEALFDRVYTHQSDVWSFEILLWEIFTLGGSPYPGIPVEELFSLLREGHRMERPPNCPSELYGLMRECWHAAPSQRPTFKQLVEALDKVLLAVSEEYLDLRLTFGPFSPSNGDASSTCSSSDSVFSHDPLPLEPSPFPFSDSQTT
Sequence of mouse FGFR4/β-klotho complex co-expressed in rat L6 myoblast cells (mouse) (Q99N32 whole entry, chain 2 of 2, further chain): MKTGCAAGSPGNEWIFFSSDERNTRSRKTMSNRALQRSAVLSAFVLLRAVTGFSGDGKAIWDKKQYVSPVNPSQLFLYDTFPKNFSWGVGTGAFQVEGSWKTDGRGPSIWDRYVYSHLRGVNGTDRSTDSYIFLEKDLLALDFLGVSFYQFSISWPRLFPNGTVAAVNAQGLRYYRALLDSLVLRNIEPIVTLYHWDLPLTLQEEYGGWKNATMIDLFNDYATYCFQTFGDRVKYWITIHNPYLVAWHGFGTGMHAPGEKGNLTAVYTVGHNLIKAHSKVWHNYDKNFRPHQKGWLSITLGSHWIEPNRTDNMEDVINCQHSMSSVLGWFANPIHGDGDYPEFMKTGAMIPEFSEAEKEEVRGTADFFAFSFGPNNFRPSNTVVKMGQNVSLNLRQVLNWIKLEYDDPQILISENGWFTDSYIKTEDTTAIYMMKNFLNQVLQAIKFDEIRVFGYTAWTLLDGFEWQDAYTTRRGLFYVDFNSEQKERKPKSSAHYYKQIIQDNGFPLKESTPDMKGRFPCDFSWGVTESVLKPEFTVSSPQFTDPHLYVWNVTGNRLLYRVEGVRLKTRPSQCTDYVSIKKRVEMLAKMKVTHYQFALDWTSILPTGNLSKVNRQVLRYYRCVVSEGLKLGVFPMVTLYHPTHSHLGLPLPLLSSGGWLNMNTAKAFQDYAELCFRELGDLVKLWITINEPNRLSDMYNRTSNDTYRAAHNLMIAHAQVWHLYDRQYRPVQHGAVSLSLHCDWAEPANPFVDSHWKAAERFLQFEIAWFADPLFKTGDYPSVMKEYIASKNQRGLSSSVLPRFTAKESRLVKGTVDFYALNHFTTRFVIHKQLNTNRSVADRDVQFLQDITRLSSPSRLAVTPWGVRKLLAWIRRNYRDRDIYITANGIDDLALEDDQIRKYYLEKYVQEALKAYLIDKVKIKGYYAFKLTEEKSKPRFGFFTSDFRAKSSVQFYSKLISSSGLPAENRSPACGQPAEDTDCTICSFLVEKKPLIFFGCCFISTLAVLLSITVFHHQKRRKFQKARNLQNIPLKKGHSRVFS

Take “FGF19 (human fibroblast growth factor 19, wild type) (from UniProt O95750 25-216) (ligand)”: the EC50 (pM), ELK luciferase assay in L6 cells came to 52.5 pM and the Emax (fold potentiation), ELK luciferase assay in L6 cells (fold potentiation) stood at 1.82.
